Experimental data as given in article PMC5339802 (2017).

T1: FITC-labeled MyoVa-GTD (human, UniProt Q9Y4I1 1448-1855, fluorescein isothiocyanate (FITC) label, site not stated)
T1 chain: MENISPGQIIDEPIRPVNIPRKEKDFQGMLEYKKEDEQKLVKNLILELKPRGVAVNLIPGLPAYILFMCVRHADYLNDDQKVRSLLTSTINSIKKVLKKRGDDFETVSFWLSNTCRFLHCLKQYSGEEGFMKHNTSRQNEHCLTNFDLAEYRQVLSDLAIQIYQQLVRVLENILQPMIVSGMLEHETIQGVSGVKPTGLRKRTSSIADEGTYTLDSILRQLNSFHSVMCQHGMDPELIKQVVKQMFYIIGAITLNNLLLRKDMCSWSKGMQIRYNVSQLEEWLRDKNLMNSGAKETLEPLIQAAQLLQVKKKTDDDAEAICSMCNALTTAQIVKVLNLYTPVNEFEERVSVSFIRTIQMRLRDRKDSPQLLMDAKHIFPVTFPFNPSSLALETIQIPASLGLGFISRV


Legend:
FITC-labeled MyoVa-GTD [1] = biological target: T1, FITC-labeled MyoVa-GTD; experiment: MST; 300 nM FITC-labeled MyoVa-GTD, serial dilution of RPGRIP1L-C2 domains; 50 mM HEPES, 150 mM NaCl, 5% glycerol, 0.05% tween-20, pH 7.2; Monolith NT.115, LED power 20%, MST power 60%; triplicate
FITC-labeled MyoVa-GTD [2] = biological target: T1, FITC-labeled MyoVa-GTD; experiment: MST

Kd (FITC-labeled MyoVa-GTD [1]) [µM]	Kd (FITC-labeled MyoVa-GTD [2]) [µM]	Molecule
	8.9	RPGRIP1L-C2MED domain, purified, GST removed (domain or fragment) STDSTDGNLNELHITIRCCNHLQSRASHLQPHPYVVYKFFDFADHDTAIIPSSNDPQFDDHMYFPVPMNMDLDRYLKSESLSFYVFDDSDTQENIYIGKVNVPLISLAHDRCISGIFELTDHQKHPAGTIHVILKWKFAYLPPSGSITTE
	3.8	RPGRIP1L-C2_(CTERM) domain, purified, GST removed (domain or fragment) MQQGKDDVSLLSEGQLAEQSLASSEDETEITEDLEPEVEEDMSASDSDDCIIPGPISKNIKQPSEKIRIEIIALSLNDSQVTMDDTIQRLFVECRFYSLPAEETPVSLPKPKSGQWVYYNYSNVIYVDKENNKAKRDILKAILQKQEMPNRSLRFTVVSDPPEDEQDLECEDIGVAHVDLADMFQEGRDLIEQNIDVFDARADGEGIGKLRVTVEALHALQSVYKQYRDDLEA

More lines, now with the values behind:

Molecule	Kd (FITC-labeled MyoVa-GTD [1]) [µM]	Kd (FITC-labeled MyoVa-GTD [2]) [µM]
RPGRIP1L-C2 domains	3 to 9	
RPGRIP1L-C2_(NTERM) domain, purified, GST removed (domain or fragment) RIHKLEAQLKDIAYGTKQYKFKPEIMPDDSVDEFDETIHLERGENLFEIHINKVTFSSEVLQASGDKEPVTFCTYAFYDFELQTTPVVRGLHPEYNFTSQYLVHVNDLFLQYIQKNTITLEVHQAYSTEYETIAACQLKFHEILEKSGRIFCTASLIGTKGDIPNFGTVEYWFRLRV		2.8
